Experimental data reported in PMC5463365, “Assembly and use of high-density recombinant peptide chips for large-scale ligand screening is a practical alternative to synthetic peptide libraries” (BMC Genomics, 2017).
Where no end group is shown, it is not given here.

B1: 5'FAM-labeled Strep-tag II peptide (peptide)
peptide: {FAM}-WSHPQFEK
notes: Strep-tag II; source: synthetic peptide
B2: 5'FAM-labeled B5 peptide (peptide)
peptide: {FAM}-VSHPQAPF
notes: B5; source: synthetic peptide
B3: 5'FAM-labeled Strep-tag I peptide (peptide)
peptide: {FAM}-AWRHPQFGG
notes: Strep-tag I; source: synthetic peptide (GenScript Inc.)

Tests used:
[1] = target: T1, Streptavidin on Streptavidin-coated biosensors (UniProt P22629 25-183); assay: BLI; BLItz system; Streptavidin-coated biosensors exposed to chemically synthesized 5'FAM peptides for 2 min in ES2 buffer; only a single analyte concentration tested; conditions: both partners purified
T1 construct: Streptavidin coated on disposable biosensors; also called Streptavidin biosensors; source: bought: Streptavidin-coated biosensors for ForteBio's BLItz system
T1 sequence (P22629 25-183): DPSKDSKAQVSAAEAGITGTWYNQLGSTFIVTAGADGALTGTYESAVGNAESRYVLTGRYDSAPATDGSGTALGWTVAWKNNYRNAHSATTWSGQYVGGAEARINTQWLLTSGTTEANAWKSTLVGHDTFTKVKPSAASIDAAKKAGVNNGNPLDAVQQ

[2] = target: T2, Recombinant Streptavidin, unconjugated (UniProt P22629 25-183); assay: fluorescence polarisation; 20 nM 5'FAM-labeled peptide with rising concentrations of Streptavidin/StrepTactin, triplicates; ES2 buffer (100 mM potassium phosphate pH 7.4, 100 μg/ml bovine γ globulin, 0.02% NaN3); at least 2 h at RT or o/n at 4 °C; conditions: both partners purified
T2 construct: Streptavidin, commercial recombinant protein; Used in the fluorescence polarisation assays; source: bought: recombinant, unconjugated format (Thermo Fisher Scientific, BioRad or Perkin Elmer, 'respectively')
T2 sequence (P22629 25-183): as above

Row | Binder | Kd [1] [µM] | Kd [2] [µM]
1 | B1 | 25.4 | 13.3
2 | B2 | 79.5 | 
3 | B3 |  | 2.75
